Source: patent publication US20240009235A1 (published 2024)

Biological target: T1, Bob1 (gene POU2AF1) peptide on HLA-B*35:01 (human)
T1 peptide: APAPTAVVL
Assay: multimer staining

binding result: no recognition
B1: TCR 1C5.6 (TCR, V domains shown)
Valpha: AQSVTQLDSQVPVFEEAPVELRCNYSSSVSVYLFWYVQYPNQGLQLLLKYLSGSTLVESINGFEAEFNKSQTSFHLRKPSVHISDTAEYFCAVKVSNAGGTSYGKLTFGQGTILTVHP
Vbeta: DGGITQSPKYLFRKEGQNVTLSCEQNLNHDAMYWYRQDPGQGLRLIYYSQIVNDFQKGDIAEGYSVSREKKESFPLTVTSAQKNPTAFYLCASSIAQGADTQYFGPGTRLTVL
